B1: P1D7 (antibody, V domains shown)
VH: EVQLLESGGGLVQPGGSLRLSCAASGFTFTSYAMSWVRQAPGKGLEWVSALSNSGDSTYYADSVKGRFTISRDNSKNTLYLQMHSLRVEDTAVYYCAKDREGDYGDYVFDYWGQGTLVTVSS
VL: SYVLTQPPSVSVAPGQTARIPCGGNNIGRKSVHWYQQKPGQAPVLVVYDDSDRPSGIPERFSGSNSGNTATLTISRVEAGDEADYYCQVWDSSDDLVVFGGGTTLTVL
B2: P1B7 (antibody, V domains shown)
VH: EVQLLESGGGLVQPGGSLRLSCAASGFTFKSYAMSWVRQAPGKGLEWVSAISGSGGSKYYADSVKGRFTISRDDSKNTLYLQMNSLRVEDTAVYYCAKPLLDSVYCLESWGQGTLVTVSS
VL: DIQMTQSPSSLSASVGDRVTITCRASQDISNYLSWYQQRPGKAPKSLIYAAFRLQSGVPSKFSGSGSGTDFTLTISSLQPEDFATYYCQQYYTYPPTFGQGTKLEIK
B3: P5D5 (antibody, V domains shown)
VH: EVQLLESGGGLVQPGGSLRLSCAASGFTFNNYAMSWVRQAPGKGLEWVSAISGSGGSKYYADSVKGRFTISRDDSKSRLYLQMNSLRVEDTALYYCTKPLLESVYYLESWGQGTLVTVSS
VL: DIQMTQSPSSLSASVGDRVTITCRASQGISNHLAWFQQKPGKAPKSLIYAASRLQSGVPSRFSGSGSGTDFTLTISSLQPEDFASYYCQQYYSYPPAFGQGTKLEIK
B4: P3G2 (antibody, V domains shown)
VH: QVQLQESGPGLVKPSETLSLTCSVSGGSVASGDFYWSWVRQPAGTGLEWIGRVSTSGSTNCNPSLKSRVTISIDTSKNEFSLRLPSVTAADTAVYYCARYRPGSGGLGVYYDYWGQGILVTVSS
VL: QSALTQPPSASGSPGQSVTISCTGASSDIGGYNYVSWYQQHPGRAPRLMIYEVHNRPSGVPDRFSGSKSGNTASLTVSGLQAEDEADYYCMSYAGGNILLFGGGTKLTVL
B5: P1D5 (antibody, V domains shown)
VH: QVQLHESGPGLVEPSQTLTLTCTVSGGSTDSDGVYWTWIRQPAGKGLEWIGRIDNRGTYSYNPSLRSRITISEEPSQNQFSLRVRSLTAADAGVYYCAREVRRLQGRRYYYYGTDVWGPGTTVTVSS
VL: DIVMTQSPLSLSVTLGESASISCRSSQSLLHTNAYNYLDWYLQRPGQSPQLLIYLSSVRASGVPDRFSGRGSGTDFTLKISRVEAEDVGIYFCMQALEMPFTFGPGTKVDIK
B6: P3G7 (antibody, V domains shown)
VH: EVQLVESGGGLVQPGRSLTLSCAVTGFIVRDYHIDWVRQAPGKGLEWVGRARNKASRYRVVYAASLKDRFTIIRDDSKNSIYLRMSSLKTEDAAMYFCVRVGHYDTQGYALDDYDVWGQGTAVTVSS
VL: QSVLTQSPSVSAAPGQRVTIHCFGSSSTIGSNQLSWYQQVPGTAPKLLIYDSDKRPSGIPDRFSASKSGTSGTLDISGLQSGDEADYYCETWDDTLKAVVFGGGTKLTVL
B7: P5G10 (human anti-PscF monoclonal antibody) (antibody, V domains shown)
VH: VQLQQWGAGLLKPSETLSLTCAVYGGSFSDYYWTWIRQAPGKGLEWIGENRHRGTTNYNPSLKGRVTISVDTSKNQFTLKVTSVTAADTAVYFCARQRGSSGGAPSGLDVWGQGTTVTVSS
VL: QSVLTQPPSASGTPGQRVTISCSGASSNIGTNYVFWYQQFPGTAPKLLIYRNGHRPSGVPDRFSGSKSGASASLAISGLRSDDEADYYCATWDDSLSSQVFGGGTKLTVL
notes: also called P5G10 mAb

The target of the first assay is T1, PscF from strain PAO1 (Pseudomonas aeruginosa PAO1, UniProt P95434).
T1 sequence (P95434 whole entry): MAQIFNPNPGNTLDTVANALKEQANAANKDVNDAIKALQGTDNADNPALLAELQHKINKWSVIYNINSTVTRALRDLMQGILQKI
Experiment: not given
Settings: not given
Take B1: the binding result is given as “binds”.
With B2, the binding result is given as “binds”.
Still for that read-out and setting: the same measure for B3: “binds”; for B4: “binds”; for B5: “binds”.
Turning to B6, the binding result is “binds”.

A further assay concerns the target T1, PscF from strain PAO1. As to the kind of experiment: ELISA; competition ELISA; serial dilutions of competitor mAbs on antigen-coated wells for 30 min, then biotinylated mAbs at their EC70; detected with AP-conjugated streptavidin. To be noted: both partners purified. For orientation: ELISA stands for enzyme-linked immunosorbent assay.
Turning to B7, the binding result was “binds”.

The values are drawn from article PMC12912723 (eLife, 2026).
